The values below come from patent US6960429B2, “Inhibition of viral gene activities” (priority 1997, dated 2005).

In assay [1] the target is T1, NΔ360 (derivative of EBNA1) (Epstein-Barr virus, UniProt P03211).
T1 construct: NΔ360 and NΔ389 have a methionine followed by amino acids 361 and 390 to the carboxy-terminus, respectively; added initiator methionine (N); made in house; host or cells: E. coli
Type of assay: biochemical. The source says:
Two DNAs used as probes in this study were generated by endonuclease digestion of cloned DNAs. That with two EBNA1-binding sites is the 131 bp, SalI to PstI fragment derived from p880 (30); and that with five GAL4-binding sites is the 109 bp, HinDIII to XbaI fragment derived from G5BCAT (31). DNA fragments were purified from agarose gels. […] This method distinguishes less than two-fold differences in DNA concentrations. These DNAs were labeled with the Klenow fragment of DNA Polymerase 1 in the presence of dATP, dGTP, dTTP, and ^32P α-dCTP (Amersham), and precipitated three times to remove unincorporated label (32).
The derivatives of EBNA1 (bEBNA1, NΔ360, NΔ389) and the GAL4 derivatives (GAL4(1-94), GAL4(1-94)&54-89, GAL4(1-94)&331-361, GAL4(1-94)&372-391) used in this study were all produced and purified as previously described (28). Briefly, bEBNA1 lacks amino acids 2 through 7 and all but fifteen amino acids of the gly-gly-ala repeats and was expressed in SF21 cells (23). NΔ360 and NΔ389 lack the first 360 and 389 amino acids, respectively, and were expressed in E. coli. GAL4(1-94) contains amino acids 1 to 94 of the yeast transactivator GAL4 plus eight carboxy-terminal amino acids coded by the poly-cloning region. The fusions designated GAL4(1-94)&#—# contain the indicated residues from EBNA1 cloned in frame into the poly-cloning region. All derivatives and fragments of EBNA1 were derived from the B95-8 viral strain (33, 15).
A.A. 40-89 and A.A. 331-391 were generated by amplifying the fragment of EBNA1 encoding those amino acids with PCR primers containing SalI and XbaI sites at the 5′ ends. […] The sequence of both clones was verified using an ABI Prism automated sequencer (Applied BioSystems). Expression of the fusion proteins in BL21 bacteria containing a DE3 lysogen and carrying pLysS was done as previously described (28). […]
Gel shift assays were done as previously described (28). […] The percentage of DNA linked is determined by dividing the amount of linked DNA by the total amount of DNA in the lane. […]

For assay [2], the target named is bEBNA1 (derivative of EBNA1). It counts as biochemical, Epstein-Barr virus. The procedure:
Two DNAs used as probes in this study were generated by endonuclease digestion of cloned DNAs. That with two EBNA1-binding sites is the 131 bp, SalI to PstI fragment derived from p880 (30); and that with five GAL4-binding sites is the 109 bp, HinDIII to XbaI fragment derived from G5BCAT (31). DNA fragments were purified from agarose gels. They were quantified by making serial dilutions in the presence of ethidium bromide (0.5 μg/mL) and comparing their intensities, when exposed to ultraviolet light, to that of similar dilutions of a standard DNA. This method distinguishes less than two-fold differences in DNA concentrations. These DNAs were labeled with the Klenow fragment of DNA Polymerase 1 in the presence of dATP, dGTP, dTTP, and ^32P α-dCTP (Amersham), and precipitated three times to remove unincorporated label (32).
The derivatives of EBNA1 (bEBNA1, NΔ360, NΔ389) and the GAL4 derivatives (GAL4(1-94), GAL4(1-94)&54-89, GAL4(1-94)&331-361, GAL4(1-94)&372-391) used in this study were all produced and purified as previously described (28). Briefly, bEBNA1 lacks amino acids 2 through 7 and all but fifteen amino acids of the gly-gly-ala repeats and was expressed in SF21 cells (23). […]
Gel shift assays were done as previously described (28). […] The percentage of DNA linked is determined by dividing the amount of linked DNA by the total amount of DNA in the lane.

T1 sequence (P03211 361-641, stated change not applied): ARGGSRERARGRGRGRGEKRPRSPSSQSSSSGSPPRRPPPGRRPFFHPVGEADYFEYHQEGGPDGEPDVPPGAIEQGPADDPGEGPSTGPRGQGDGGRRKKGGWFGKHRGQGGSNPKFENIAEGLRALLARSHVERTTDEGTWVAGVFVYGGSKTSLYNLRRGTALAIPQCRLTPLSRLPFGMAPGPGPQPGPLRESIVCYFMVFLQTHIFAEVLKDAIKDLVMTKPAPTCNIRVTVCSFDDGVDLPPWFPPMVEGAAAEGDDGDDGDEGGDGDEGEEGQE

B1: Rnase A: control protein (protein, UniProt P61823 27-150, looked up)
Ribonuclease pancreatic: KETAAAKFERQHMDSSTSAASSSNYCNQMMKSRNLTKDRCKPVNTFVHESLADVQAVCSQKNVACKNGQTNCYQSYSTMSITDCRETGSSKYPNCAYKTTQANKHIIVACEGNPYVPVHFDASV
What is called Ki is the equilibrium dissociation constant of an inhibitor or competing ligand from its target. Take B1: the Ki in assay [1] (6.5 nM dimers of NΔ360, 20 fmols DNA with two EBNA1-binding sites, Ki = concentration of competitor which inhibits linking to 50%, read-out: Ki against NΔ360) is 30 µM; in assay [2] (6.5 nM dimers of bEBNA1, 20 fmols DNA with two EBNA1-binding sites, Ki = concentration of competitor which inhibits linking to 50%, read-out: Ki against bEBNA1) it was more than 42 µM. Further, in assay [1] (DNAs with two EBNA1-binding sites, read-out: Concentration inhibiting linking by NΔ360 to 50%), the IC50 came to 30 µM. In assay [1] (linking by NΔ360), the “Amount required to reduce linking by 50% relative to A.A. 331-391” value was “Approximately 1000 fold”. In addition, in assay [2] (DNAs with two binding sites, range of concentrations tested), the “Sensitivity of bEBNA1-mediated linking to competitor” value was “insensitive”.
